Several values for one entry are separate records, joined by “and”; a condition that tells them apart may be missing. Equal values may be shown once. Read-outs that look alike come from different tables or passages of the source.
Key:
[1] = PK of regular human insulin (NOVOLIN R) after SC or intra-jejunal jet delivery, blood insulin levels; assay type: in vivo, swine; details: for Cmax / Tmax: IJ administration by jet delivery device, blood insulin
Procedure: A total of 18 Yorkshire female swine in good health and weighing 60-70 kg each were included in this study. Swine were divided into two groups with 9 animals per group. […] A sham surgical laparotomy was performed. […] The jet delivery device was configured with the single nozzle in an axial orientation.
Swine were divided into two groups with 9 animals per group. […] In all 18 animals, a laparotomy procedure was performed to expose the abdominal cavity. Animals remained under anesthesia during the entire procedure for the PK/PD study.
For the laparotomy in group 02, a small segment of the jejunal mucosa and serosa was exposed by midline laparotomy and the jet delivery device was inserted through antimesenteric incision.
(§1) Blood samples were kept on wet ice until centrifugation and separation of plasma. […] Glucose was monitored every five (5) minutes during the study by portable glucose analyzer (StatStrip (SS) hospital glucose monitoring system (Nova Biomedical, Waltham, MA)). At each time point, approximate 0.1 mL of blood was drawn and immediately placed on a glucose monitoring test strip, and the whole blood glucose concentration was measured by the SS in triplicate.
The animals were anesthetized for the entire ECP.

blood glucose = test: Euglycemic clamp procedure: blood glucose and dextrose infusion rate after NOVOLIN R; assay type: in vivo, swine; details: for mean blood glucose level: euglycemic clamp
Procedure: as §1
A euglycemic clamp procedure (ECP) was employed to compare pharmacokinetics and pharmacodynamics of regular human Insulin (NOVOLIN® R) delivered subcutaneously (SC) in the neck versus intra-jejunally (IJ) by the jet delivery device in the small intestine. ECP was used to quantify the amount of glucose required to maintain normoglycemia after exogenous bolus of insulin. […] The animals were anesthetized for the entire ECP.

[2] = Adalimumab plasma PK after ID (2-nozzle jet delivery device), SC or IV administration; assay type: in vivo, female Yorkshire pigs (Sus scrofa domesticus)
Procedure: A total of 21 healthy female Yorkshire pigs (Sus scrofa domesticus) having a body weight of 25-30 kg were used in this study. Five (N=5) were used in each of dose Groups 1-3 (intraduodenal (ID) administration via an endoscopically placed ingestible device), and three (N=3) were used in each of dose Group 4 (SC administration) and dose Group 5 (IV administration). The study design is shown below in Table 16.
Animals were housed two per cage and fasted for a minimum of 12 hours prior to dosing. Food was returned at 4 hours post-dose. Water was supplied ad libitum. The dosing was as follows: Dose day 1: group 1 (n=3), and group 3 (n=2); Dose day 2: group 2 (n=3), and group 1 (n=2); Dose day 3: group 3 (n=3), and group 2 (n=2); Dose day 4: groups 4 (n=3), and group 5 (n=3). Following the 240-hour post-dose blood collection the animal was euthanized via euthanasia solution IV bolus dose.
For subcutaneous (SC) administration, animals were placed in dorsal recumbence and the SC injection site asceptically prepared with alcohol. The test article was administered as an SC injection into a “skin tent” on the belly of the pig.
(§2) Each blood sample was collected from the pig jugular vein, or other suitable vessel via direct venipuncture, placed into a chilled tube containing K2-EDTA as the anticoagulant, and inverted several times to mix. Blood samples were kept on wet ice until centrifugation. […] Plasma was collected into pre-labeled polypropylene tubes and placed in a freezer set to maintain −60 to −80° C. prior to analysis.
All plasma samples were diluted by 1:100 dilution. Plasma samples were reanalyzed with a 1:1000 dilution from animals 6287, 6289, 6332, 6334, 6336, 6149, 6335, and 6337. Plasma samples close to the lower limit of quantification (LLOQ) were repeated with a 1:5 dilution from animals 6138 and 6137. […] Therefore, the data from animal 6138 and 6137 were not included in the final PK analysis. […] The area under the concentration curve (AUC) was calculated with the trapezoidal rules.

[3] = Adalimumab plasma PK after ID administration via 4-nozzle jet delivery device; assay type: in vivo, female Yorkshire pigs (Sus scrofa domesticus); details: for AUC0-10 (±SEM) / Tmax: 40 mg, N=4, plasma; for AUC0-10 Corrected for Dose (±SEM): N=4; for Bioavailability over IV (±SEM): vs Example 5 IV control; for Bioavailability over IV (±SEM) / Bioavailability over SC (±SEM): AUC corrected for dose used; for Bioavailability over SC (±SEM): vs Example 5 SC control
Procedure: A total of 9 healthy female Yorkshire pigs (Sus scrofa domesticus) having a body weight of 24-30 kg were used in this study. […] Each dose group received test article via intraduodenal (ID) administration. The study design is shown below in Table 21.
Animals were housed two per cage and fasted for a minimum of 12 hours prior to dosing. Food was returned at 4 hours post-dose. Water was supplied ad libitum. The dosing was as follows: Dose day 1: group 1 (n=2), and group 2 (n=3); Dose day 2: group 2 (n=3), and group 1 (n=2).
Intraduodenal (ID) administration was performed as follows.
as §2
(§3) All plasma samples were diluted by 1:100 dilution. Diluted samples were processed in duplicates and the mean Optical Density (O.D.) was measured using a SpectraMax plate reader is and utilizing SoftMax Pro software for analysis. The Lower Limit of Quantification (LLOQ) was calculated by adding 10× the standard deviation value of the blanks O.D. to the average of the blank standard O.D. values. […] The area under the concentration curve (AUC) was calculated with the trapezoidal rules.
The PK results were compared to a subset of data from Example 5. The bioavailability was determined by comparison with Example 5 control arms (SC and IV administration).

TNFα = TNFα (Homo sapiens, UniProt P01375); test: LOCI competitive inhibition assay of adalimumab binding to TNFα after jet dispensing; details: delivery pressures up to 300 psi, nozzle diameter down to 0.35 mm
Procedure: The drug (adalimumab) was loaded into the ingestible device and fired through a nozzle with varying diameters at various pressure conditions.
FIGS. 57A-57B illustrate the general principle of the assay.
Drug binding was detected using Luminescent Oxygen Channeling (LOCI™)—a competitive binding assay. Signal was detected by comparing to a non-drug carrier control and an artificially damaged drug using a commercial FAB fragmentation kit.
Drug function was determined through a competition binding assay comparing drug binding function for drug dispensed via standard delivery mechanism and drug delivered via the ingestible device with various pressures.

[4] = Non-reducing SDS-PAGE protein profile of jet-dispensed adalimumab (drug structure); assay type: physicochemical
Text: The purpose of this study was to evaluate the effects that nozzle geometry and delivery pressure have on drug structure when the drug is dispensed from a jet delivery device using different delivery pressures and nozzle sizes. Structural changes in the jet-delivered drug could potentially result in compromised functioning of the drug in vitro.
The drug (adalimumab drug substance (DS)) was loaded into the simulated capsule jet delivery device and ejected using different pressures and nozzle geometries.
The resulting protein concentrations were obtained using an extinction coefficient of 1.4 and Gen5 version 3.03.14 program. The samples were then diluted and the protein profiles were analyzed using non-reducing SDS-PAGE. Protein banding patterns of the dispensed samples were compared to that of the unmanipulated drug and the drug artificially damaged (enzymatically degraded) via the papain in a commercial Fab fragmentation kit (Pierce™ Fab Preparation Kit).
For gel analysis, protein was mixed with non-reducing sample buffer. Samples were not heated. 5 μg of samples and controls were loaded per lane of a SDS-PAGE gel (4% Acrylamide-Bis stacking, 12% resolving; see Table 26). The gel was electrophoresed at 195 V and stained in R-250 Coomassie Blue dye.

[5] = Adalimumab plasma PK after ID administration via endoscopic injection needle; assay type: in vivo, female Yorkshire pigs (Sus scrofa domesticus); details: 5 pigs in two studies
Procedure: A total of 5 healthy female Yorkshire pigs (Sus scrofa domesticus) having a body weight of ˜25-40 kg were used in these studies, 3 in a first study and 2 in a second study. Each animal received test article via intraduodenal (ID) administration via an injection needle. The study design is shown below in Table 34.
Animals were housed one per cage and fasted for a minimum of 12 hours prior to dosing. Food was returned at 4 hours post-dose. Water was supplied ad libitum.
Intraduodenal (ID) administration was performed as follows. […] Once it was confirmed that the endoscopic injection needle was placed in the correct region, approximately 0.5 mL of saline was injected within the lamina propria of the mucosa to create a small bleb in the mucosa. The formulation was then injected into the bleb and flushed with approximately 0.8 mL of saline. […]
as §3, with “reader” for “reader is”

[6] = pig, in vivo
[7] = SC administration, swine, group average
[8] = SC administration, swine, individual animals
[9] = Group 1: ID, 2 nozzle jet delivery device 220 PSIG, 40 mg, N=2, plasma
[10] = Group 3: ID, 2 Nozzle device 320 PSIG, N=5, data from Example 5
[11] = Group 3: ID, 2 Nozzle device 320 PSIG, data from Example 5
[12] = Group 3: ID, 2 nozzle jet delivery device 320 PSIG, 40 mg, N=5, plasma
[13] = Group 4: SC control, N=3, data from Example 5
[14] = Group 4: SC control, data from Example 5
[15] = Group 5: IV control, N=3, data from Example 5
[16] = Group 1: ID, 4 Nozzle device 320 PSIG
[17] = Group 2: ID, 4 Nozzle device 350 PSIG

TNFα, sequence (P01375 77-233 limits assumed): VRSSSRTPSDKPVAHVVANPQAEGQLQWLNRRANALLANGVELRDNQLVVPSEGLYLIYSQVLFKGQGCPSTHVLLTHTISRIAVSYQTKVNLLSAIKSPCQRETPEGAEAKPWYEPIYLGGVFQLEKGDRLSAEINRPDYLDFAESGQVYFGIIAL

Substance: NOVOLIN® R: regular human insulin (NOVOLIN® R)
- Cmax ([1]; Average of 8 animals): 77.40 uIU/mL
- Tmax ([1]; Average of 8 animals): 55.63 min
- Cmax ([1]; individual animal): 40.93 uIU/mL and 96.77 uIU/mL and 5.03 uIU/mL and 7.96 uIU/mL and 48.77 uIU/mL and 85.38 uIU/mL and 207.96 uIU/mL and 126.39 uIU/mL
- Tmax ([1]; individual animal): 20 min and 50 min and 90 min (2×) and 40 min (3×)
- blood insulin level in animal 18P18 ([1]; SC administration group, compared with rest of group): significantly higher than the rest of the animals in the group
- Cmax of blood insulin, Average [1, 7]: 202.94 uIU/mL
- Tmax of blood insulin, Average [1, 7]: 1.452 h
- Cmax of blood insulin [1, 8]: 451.00 uIU/mL and 60.74 uIU/mL and 354.00 uIU/mL and 356.60 uIU/mL and 65.71 uIU/mL and 59.18 uIU/mL and 73.34 uIU/mL
- Tmax of blood insulin [1, 8]: 50 min (2×) and 180 min and 105 min and 30 min and 120 min
- maximum plasma concentration Cmax, SC group compared with IJ group ([1]; SC versus IJ administration): higher than that of the IJ administration group
- time to maximum plasma concentration (Tmax) ([1]; jejunum (IJ) administration via jet delivery device, swine, group mean): 0.9272 h
- mean blood glucose level (blood glucose; IJ administration group): 89.6 mg/dL
- mean blood glucose level (blood glucose; SC administration group): 83.5 mg/dL
- mean dextrose infusion rate, IJ versus SC group (blood glucose; from 75 minutes to 420 minutes post-administration): higher in the SC administration group

Substance: adalimumab
- Cmax [2, 9]: 570 ng/mL
- Tmax [2, 9]: 24 h
- Tmax ([2]; Group 2: ID, 2 nozzle jet delivery device 270 PSIG, 40 mg, N=4, plasma): 24 h
- AUC0-10 (±SEM) [2, 10]: 32.31 µg·days/mL
- AUC0-10 Corrected for Dose (±SEM) [2, 10]: 32.25 µg·days/mL
- Cmax [2, 10]: 5000 ng/mL
- Tmax [2, 10]: 24 h
- Bioavailability over IV (±SEM) [2, 11]: 26.25
- Bioavailability over SC (±SEM) [2, 11]: 35.38
- Cmax [2, 12]: 5000 ng/mL
- Tmax [2, 12]: 24 h
- AUC0-10 (±SEM) [2, 13]: 91.87 µg·days/mL
- Tmax [2, 13]: 140 h
- Bioavailability over IV (±SEM) [2, 14]: 74.89
- Bioavailability over SC (±SEM) [2, 14]: 100
- Tmax ([2]; Group 4: SC, 40 mg, N=3, plasma): 140 h
- Bioavailability over IV ([2]; Group 5: IV): 100%
- AUC0-10 (±SEM) [2, 15]: 122.67 µg·days/mL
- Tmax [2, 15]: 3.12 h
- Bioavailability over IV (±SEM) ([2]; Group 5: IV control, data from Example 5): 100
- Tmax ([2]; Group 5: IV, 40 mg, N=3, plasma): 3.12 h
- AUC0-10 (±SEM) [3, 16]: 23.831 µg·days/mL
- Tmax [3, 16]: 24 h
- AUC0-10 Corrected for Dose (±SEM) [3, 16]: 23.997 µg·days/mL
- Bioavailability over IV (±SEM) [3, 16]: 19.560
- Bioavailability over SC (±SEM) [3, 16]: 26.120
- AUC0-10 (±SEM) [3, 17]: 14.603 µg·days/mL
- Tmax [3, 17]: 24 h
- AUC0-10 Corrected for Dose (±SEM) [3, 17]: 15.171 µg·days/mL
- Bioavailability over IV (±SEM) [3, 17]: 12.367
- Bioavailability over SC (±SEM) [3, 17]: 16.513
- ability of the drug to bind to the target TNFα after jet delivery (TNFα): did not significantly inhibit the ability of the drug to bind to the target TNFα
- protein banding pattern, non-reducing SDS-PAGE ([4]; 5 μg per lane, jet-delivered samples versus unmanipulated drug and papain-degraded controls): same banding pattern as the unmanipulated drug
- structural changes after dispensing ([4]; dispensing pressures and nozzle sizes employed): No structural changes were evident
- quantifiable levels in plasma [5]: one animal from the first study and one animal from the second study had quantifiable levels

Substance: dulaglutide: long-acting GLP-1 receptor agonist, GLP-1 analogue linked to modified human IgG4 Fc, about 63 kDa
- Bioavailability relative to IV [6]: 26.51%
- Bioavailability relative to SC [6]: 49.11%
- plasma level in one animal in Group 1 (no. 8487; ID) [6]: below the limit of detection
- (AUC)T0-T240 h ± SEM ([6]; 1.2 mg): 4355.86 ng·h/mL
- AUCID (mean ± SEM) ([6]; 1.2 mg): 3890.00 ± 94.73 ng·h/mL
- Cmax ([6]; 1.2 mg): 70.65 ng
- Tmax ([6]; 1.2 mg): 8 h
- Bioavailability relative to IV ([6]; iv): 100%
- (AUC)T0-T240 h ± SEM ([6]; iv, 1.2 mg): 16429.33 ng·h/mL
- Cmax ([6]; iv, 1.2 mg): 632.93 ng
- Tmax ([6]; iv, 1.2 mg): 1 h
- Bioavailability relative to SC ([6]; sc): 100%
- (AUC)T0-T240 h ± SEM ([6]; sc, 1.2 mg): 8869 ng·h/mL
- Cmax ([6]; sc, 1.2 mg): 141.3 ng
- Tmax ([6]; sc, 1.2 mg): 6 h

Reference: patent US20240252795A1, “INGESTIBLE DEVICE FOR DELIVERY OF THERAPEUTIC AGENT TO THE GASTROINTESTINAL TRACT” (BIORA THERAPEUTICS, INC., priority 2018, published 2024)
